Laboratory results as given in IntAct's records for PubMed 18323775.

B1: Zinc finger protein-like 1 (Mus musculus), Q9DB43 (parent)
chain: MGLCKCPKRKVTNLFCFEHRVNVCEHCLVANHAKCIVQSYLQWLQDSDYNPNCRLCNTPLASRETTRLVCYDLFHWACINERAAQLPRNTAPAGYQCPSCNGPIFPPANLAGPVASALREKLATVNWARAGLGLPLIDEVISPEPEPLNSSDFSDWSSFNATTTSVQEERASTPSAPAFYSQAPRPPPSPSRPEQHTVIHMGSTEALAHAPRKVYDTRDDDRTAGIHGDCDDDKYRRRPALGWLAQLLRSRAGSRKRPLTLLQRAGLLLLLGLLGFLALLALMSRLGRAAADSDPNLDPLMNPHIRVGPS
partner: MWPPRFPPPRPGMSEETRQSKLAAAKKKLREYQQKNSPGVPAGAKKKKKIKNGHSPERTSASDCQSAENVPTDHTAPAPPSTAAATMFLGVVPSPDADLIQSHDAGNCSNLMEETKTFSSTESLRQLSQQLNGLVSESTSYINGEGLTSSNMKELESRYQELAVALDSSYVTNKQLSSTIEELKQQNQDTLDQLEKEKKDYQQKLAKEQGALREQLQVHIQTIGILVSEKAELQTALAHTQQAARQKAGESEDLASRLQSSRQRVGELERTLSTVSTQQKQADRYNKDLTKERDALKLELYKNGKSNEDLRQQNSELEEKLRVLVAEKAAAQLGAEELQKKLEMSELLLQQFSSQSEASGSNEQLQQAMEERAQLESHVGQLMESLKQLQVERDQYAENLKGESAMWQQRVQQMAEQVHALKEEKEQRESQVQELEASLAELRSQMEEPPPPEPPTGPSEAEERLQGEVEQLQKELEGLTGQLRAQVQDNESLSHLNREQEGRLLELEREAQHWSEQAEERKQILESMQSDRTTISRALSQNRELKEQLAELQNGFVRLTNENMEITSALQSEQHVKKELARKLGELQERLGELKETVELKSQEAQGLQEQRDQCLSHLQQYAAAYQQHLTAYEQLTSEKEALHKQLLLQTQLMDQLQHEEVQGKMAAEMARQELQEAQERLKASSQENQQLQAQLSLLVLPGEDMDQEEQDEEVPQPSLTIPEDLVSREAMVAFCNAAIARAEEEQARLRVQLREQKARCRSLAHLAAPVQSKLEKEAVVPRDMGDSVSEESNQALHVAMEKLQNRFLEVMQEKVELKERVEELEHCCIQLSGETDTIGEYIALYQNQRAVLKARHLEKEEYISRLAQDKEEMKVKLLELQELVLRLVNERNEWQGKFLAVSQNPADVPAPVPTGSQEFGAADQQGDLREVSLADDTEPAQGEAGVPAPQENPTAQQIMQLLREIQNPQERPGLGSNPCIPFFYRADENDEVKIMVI

Variants of: B1
Settings: with goga2_rat Golga2, Q62839

| Variant | effect of a mutation on the interaction |
| --- | --- |
| MGLCKCPKRKVTNLFCFEHRVNVCEHCLVANHAKCIVQSYLQWLQDSDYNPNARLCNTPLASRETTRLVCYDLFHWACINERAAQLPRNTAPAGYQCPSCNGPIFPPANLAGPVASALREKLATVNWARAGLGLPLIDEVISPEPEPLNSSDFSDWSSFNATTTSVQEERASTPSAPAFYSQAPRPPPSPSRPEQHTVIHMGSTEALAHAPRKVYDTRDDDRTAGIHGDCDDDKYRRRPALGWLAQLLRSRAGSRKRPLTLLQRAGLLLLLGLLGFLALLALMSRLGRAAADSDPNLDPLMNPHIRVGPS [C53A] | decreasing interaction |

Variants of: B1
Settings: with goga2_rat Golga2, Q62839
Remark: another data set of the same source

| Variant | effect of a mutation on the interaction |
| --- | --- |
| MGLCKCPKRKVTNLFCFEHRVNVCEHALVANHAKCIVQSYLQWLQDSDYNPNCRLCNTPLASRETTRLVCYDLFHWACINERAAQLPRNTAPAGYQCPSCNGPIFPPANLAGPVASALREKLATVNWARAGLGLPLIDEVISPEPEPLNSSDFSDWSSFNATTTSVQEERASTPSAPAFYSQAPRPPPSPSRPEQHTVIHMGSTEALAHAPRKVYDTRDDDRTAGIHGDCDDDKYRRRPALGWLAQLLRSRAGSRKRPLTLLQRAGLLLLLGLLGFLALLALMSRLGRAAADSDPNLDPLMNPHIRVGPS [C27A] | decreasing interaction |

Variants of: B1
Settings: with goga2_rat Golga2, Q62839
Remark: another data set of the same source

| Variant | effect of a mutation on the interaction |
| --- | --- |
| MGLCKCPKRKVTNLFCFEHRVNVCEHALVANHAKCIVQSYLQWLQDSDYNPNCRLCNTPLASRETTRLVCYDLFHWACINERAAQLPRNTAPAGYQCPSCNGPIFPPANLAGPVASALREKLATVNWARAGLGLPLIDEVISPEPEPLNSSDFSDWSSFNATTTSVQEERASTPSAPAFYSQAPRPPPSPSRPEQHTVIHMGSTEALAHAPRKVYDTRDDDRTAGIHGDCDDDKYRRRPALGWLAQLLRSRAGSRKRPLTLLQRAGLLLLLGLLGFLALLALMSRLGRAAADSDPNLDPLMNPHIRVGPS [C27A] | disrupting interaction |

Variants of: B1
Settings: with goga2_rat Golga2, Q62839
Remark: another data set of the same source

| Variant | effect of a mutation on the interaction |
| --- | --- |
| MGLCKAPKRKVTNLFCFEHRVNVCEHCLVANHAKCIVQSYLQWLQDSDYNPNCRLCNTPLASRETTRLVCYDLFHWACINERAAQLPRNTAPAGYQCPSCNGPIFPPANLAGPVASALREKLATVNWARAGLGLPLIDEVISPEPEPLNSSDFSDWSSFNATTTSVQEERASTPSAPAFYSQAPRPPPSPSRPEQHTVIHMGSTEALAHAPRKVYDTRDDDRTAGIHGDCDDDKYRRRPALGWLAQLLRSRAGSRKRPLTLLQRAGLLLLLGLLGFLALLALMSRLGRAAADSDPNLDPLMNPHIRVGPS [C6A] | disrupting interaction |
